# Data: patent publication US20210188980A1 (SHANGHAI EPIMAB BIOTHERAPEUTICS, published 2021)
# Tests used:
# [1] = target: T1, human PD-1 ECD/Fc fusion protein (human); assay: ELISA, coated huPD-1/Fc
# T1 construct: also called huPD-1/Fc; HuPD-1 ECD/Fc
# Protocol: ELISA plates were incubated overnight at 4° C. with 50 μl of the synthetic human PD-1 ECD/Fc fusion protein targets described above diluted in PBS buffer, pH 7.4, at 1 μg/ml. Plates were washed four times in washing buffer (PBS containing 0.05% Tween 20), and blocked for 1 hour at 37° C. with 200 μl per well blocking buffer (1% BSA in PBS containing 0.05% Tween 20). After blocking buffer was removed, hybridoma supernatant (or later diluted purified mAbs) were added to the wells at 100 μl per well and incubated at 37° C. for 1 hour. The wells were washed four times with washing buffer, and anti-mouse HRP (Sigma) for mouse anti-human PD-1 antibody characterization were diluted 1:5000 and added to the wells at 100 μl per well. The plates were incubated for 1 hour at 37° C. and washed four times in washing buffer. 100 μl of tetramethylbenzidine (TMB) chromogenic solution were added per well. Following color development, the reaction was stopped with 1 Normal HCl and absorbance at 450 nm was measured on a SpectraMax M5e plate reader (Molecular Devices; San Jose, Calif., US).
# A binding ELISA was performed in the same way as described in Example 1.3 above. Each purified antibody was 10-fold serially diluted and duplicated. After blocking of the 96-well assay plate with wells containing immobilized PD-1 ECD/Fc fusion protein targets, the purified antibody samples with diluted concentrations were added to wells of assay plates. The HRP-linked anti-mouse IgG antibody (A0168, Sigma) and TMB reagent were used to detect and develop the ELISA signal, which were read on a SpectraMax® M5e plate reader at wavelength of 450 nm. Curves were fitted using GraphPad software, and EC50 were calculated. Similarly, a receptor blocking assay (RBA) was also performed as described in Example 1.5 with titrated, purified antibodies, and top blocking percentages and IC50 values were determined.
# [2] = target: T2, human PD-1 expressed on cells (human, UniProt Q15116 25-288); assay: FACS, CHO-K1/huPD-1 cells
# T2 construct: whole, on cells; also called CHO-K1/huPD-1; CHO-K1-hPD-1 cells
# Protocol: (§1) CHO-K1/huPD-1 or CHO-K1/cynoPD-1 cells, described above, were charged at 2×10⁴ cell per well into 96-well assay round-bottomed assay plates (Cat. No. 3799; Corning) and stained with purified anti-PD-1 antibodies. PD-1 antibodies were detected with AlexaFluor® Donkey anti-Mouse IgG (H+L) Highly Cross-Adsorbed Secondary Antibody, (Cat. No. A21202; Invitrogen), and cell fluorescence was monitored using a flow cytometer. The data were processed by GraphPad software, and EC50 values were calculated.
# [3] = target: T3, cynomolgus PD-1 expressed on CHO-K1 cells (cynomolgus monkey, UniProt B0LAJ3 25-288); assay: FACS, CHO-K1/cynoPD-1 cells
# T3 construct: also called CHO-K1/cynoPD-1; CHO-K1-cynoPD-1
# Protocol: as §1
# [4] = target: T1, human PD-1 ECD/Fc fusion protein; assay: SPR Biacore, mAb captured, huPD-1/Fc analyte
# Protocol: The binding kinetics of purified antibodies were measured by surface plasmon resonance using a Biacore […] instrument (GE Healthcare) using standard procedures. Briefly, goat anti-mouse IgG Fc polyclonal antibody (Genway) was directly immobilized across a biosensor chip, and antibodies samples were injected over reaction matrices at a flow rate of 5 μl/min. The association and dissociation rate constants, kₒₙ(M⁻¹ s⁻¹) and koff (s⁻¹) respectively, were determined with a continuous flow rate of 30 μl/min. Rate constants were derived by making kinetic binding measurements at five different concentrations of human PD-1/Fc protein. The equilibrium dissociation constant KD (M) of the reaction between antibodies and related target proteins was then calculated from the kinetic rate constants using the formula KD=koff/kₒₙ.
# [5] = target: T1, human PD-1 ECD/Fc fusion protein; assay: RBA ELISA on huPD-1/Fc; competitor biotin-huPD-L1/Fc
# Protocol: (§2) Supernatants displaying PD-1 specific activity were tested for the ability to block PD-1 binding to its ligands PD-L1 and PD-L2 using immobilized human PD-1 ECD/Fc as a target and PD-L1/Fc and PD-L2/Fc fusion proteins, prepared in the same manner as the PD-1 ECD/Fc binding proteins described in Example 1.3 above. To determine the relative potency of the antibody-containing supernatants, their ability to inhibit the binding of a human PD-1 ligand (PD-L1 or PD-L2) to human PD-1 protein was evaluated. ELISA plates were coated with 100 μl of 50 ng/m of huPD-1/Fc (i.e., the extracellular domain of PD-1 grafted onto the N-terminus of a human Fc region, recovered as a homodimer) in PBS and incubated overnight at 4° C. Plates were washed four times in washing buffer (PBS containing 0.05% Tween 20) and blocked for 1 hour at 37° C. with 200 μl per well of blocking buffer (1% BSA in PBS containing 0.05% Tween 20). After blocking buffer was removed, hybridoma supernatant (50 μl) was added to the wells, mixed with either 50 μl biotinylated human PD-L1/Fc ([…] final concentration) in blocking buffer or 50 μl biotinylated human PD-L2/Fc (final concentration 50 μg/ml) in blocking buffer, then incubated at 37° C. for 1 hour. Signal was developed by adding streptavidin-HRP (Sigma, Cat. No. S2468) (100 μl/well of streptavidin-HRP at 1:5000 dilution) and incubating for 40 minutes at 37° C. and washed four times in washing buffer. 100 μl of TMB solution were added per well. Following color development, the reaction was stopped with 1 Normal HCl and absorbance at 450 nm was measured. […]
# [6] = target: T1, human PD-1 ECD/Fc fusion protein; assay: RBA ELISA on huPD-1/Fc; competitor biotin-huPD-L2/Fc
# Protocol: as §2
Binder,EC50 [1] [nM],EC50 [2] [nM],EC50 [3] [nM],Kd [4] [nM],koff [4] [s⁻¹],kon [4] [M⁻¹ s⁻¹],IC50 [5] [nM],TOP inhibition (%) [5] [%],IC50 [6] [nM],TOP inhibition (%) [6] [%]
"mAb718 (antibody, V domains shown, murine hybridoma anti-PD-1 mAb) VH: QVQLQQSGAELVRPGASVTLSCKASGYTFTDYEMHWAKQTPVHGLEWIGVIEPESGGTVYNQKFKGKAKLTADKSSRTAYMELRSLTSEDSAVYYCTREGFNSDHYFDYWGQGTTLTVSS VL: DVLMTQTPLSLPVSLGDQASISCRSSQNIVHSNGNTYLEWYLQKPGQSPKLLIYKVFNRFSGVPDRFSGSGSGTDFTLKISRVEAEDLGVYYCFQGSHVPYTFGGGTKLEIK",0.02,3.2,4.2,4.84,0.000283,58400,4.19,96.6,1.91,96.6
"mAb713 (antibody, V domains shown, murine hybridoma anti-PD-1 mAb) VH: EVKLVESGGGLVKPGGSLELSCAASGFTSSDYGMHWVRQAPEKGLEWVAYISSGSYTIYYADTVKGRFTISRDNAKNTLFLQMTSLRSEDTAMYYCAKRGGSSHVNVMDYWGQGTSVTVSS VL: DIQMTQSSSYLSVSLGGRVTITCKASDHINNWLAWYQQKPGNAPRLLISGATSLETGVPSRFSGSGSGKDYTLSITSLQTEDVATYYCQQYWSPPYTFGGGTKLEIK",0.08,1.1,0.9,1.96,0.000285,145000,2.95,94.4,2.52,93.5
"mAb715 (antibody, V domains shown, murine hybridoma anti-PD-1 mAb) VH: EVMLVESGGGLLKPGGSLKLSCAASGFTFSSYAMSWVRQTPEKRLEWVATISGGGRDTYYPDSVKGRFTISRDNAKNTLYLQMTSLRSEDTAFYYCAGQGGTYLFASWGQGTLVTVSA VL: DIVMTQSHKFMSTSVGDSVTITCKASQDVNTAVAWYQQKPGQPPKVLIYWASTRHTGVPDRFTGSGSGTDYTLTISSVQAEDLALYYCQQHYTTPYTFGGGTKLEIK",0.04,1.1,0.9,1.5,0.000237,158000,2.91,86.9,2.17,88
"mAb714 (antibody, V domains shown, murine hybridoma anti-PD-1 mAb) VH: EVHLQQSGPELVKPGASVKIFCKASGYTFTDNNVEWVKQSHGKSLEWIGDINPNNGDTLYSQYFKDKATLTVDKSSTTAYMELRSLTSEDTGLYYCARGKSDQFDYWGQGTTLTVSS VL: DIQMTQSPASQSASLGESVTITCLASQTIGTWLAWYQQKPGKSPQLLIYAATSLADGVPSRFSGSGSGTKFSFKISSLQGEDFVSYYCQQLYSSPWTFGGGTKLEIK",0.05,1.6,0.8,2.11,0.00021,99400,2.95,92.3,2.24,93.1
"mAb701 (antibody, V domains shown, murine hybridoma anti-PD-1 mAb) VH: EVLLVESGGGLVKPGGSLKLSCAASGFTFSSYMMSWIRQTPERRLEWVASMSGGGRDTYYPDSVKGRFTISRDNAKNTLYLQMSSLRSEDTALYYCARRGTYAMDYWGQGTSVTVSS VL: DIQMTQSPASQSASLGESVTITCLASQTIGTWLTWYQQKPGKSPQLLIYAATSLADGVPSRFSGSGSGTKFSFKISSLQAEDFVSYYCQQLYSTPWTFGGGTKLEIK",0.1,3,3.8,6.81,0.000512,75200,5.32,87.1,2.67,94.1

# More lines, now with the values ahead:
EC50 [1] [nM],EC50 [2] [nM],EC50 [3] [nM],Kd [4] [nM],koff [4] [s⁻¹],kon [4] [M⁻¹ s⁻¹],IC50 [5] [nM],TOP inhibition (%) [5] [%],IC50 [6] [nM],TOP inhibition (%) [6] [%],Binder
0.02,1.7,2.1,3,0.000215,71500,3.39,96.5,1.85,95.2,"mAb719 (antibody, V domains shown, murine hybridoma anti-PD-1 mAb) VH: EVKLVESGGGLVKPGGSLKLSCTASGFSFSSHLMSWVRQTPEKRLEWVAAISGGGADTYYPDSVKGRFTISRDNAKNTLYLQMRSLRSEDTALYYCTRQILAFDSWGQGTTLTVSS VL: DIQMNQSPSSLSVSLGDTITITCHASQNIYVWLNWYQQKPGNIPKLLIYKASNLHTGVPSRFSGGGSGTGFTLTISSLQPEDIATYYCQQGQSYPWTFGGGTKLEIK"
0.01,0.2,0.2,0.939,0.000104,111000,0.8,91.6,0.52,93.7,"mAb709 (antibody, V domains shown, murine hybridoma anti-PD-1 mAb) VH: EVKLVESGGGLVKPGGSLKLSCAASGFTFSFYTMSWVRQTPEKRLEWVATISGGGRDTYYPDSVKGRFTISRDNAKNTLYLHMSSLRSEDTALYYCAGQGGNYLFAYWGQGTLVTVSA VL: DIVMTQSHKFMSTSVGDSVTITCKASQDVNTVVAWYQQKPGQSLKVLISWASTRHTGVPARFTGSGSGTDYTLTISSVQAEDLALYYCQQHYTTPYTFGGGTQLEIK"
